Results as given in US20170145113A1 (Genentech, published 2017).

Columns and labels:
h15H6.v1 LC-S49Y variant = assay: phage competition ELISA: phage-displayed Fab preincubated with soluble murine HtrA1, unbound phage captured on coated huHtrA1-PD-His, OD450
h15H6.v1 HC-A71R variant = assay: as above
[1] = molecular target: purified full-length human HtrA1 (human, UniProt Q92743 23-480); assay: cell-based or functional assay
[2] = molecular target: purified full-length murine HtrA1 (murine, UniProt Q9R118 23-480); assay: cell-based or functional assay
[3] = molecular target: T1, murine HtrA4 protease domain (murine, UniProt A2RT60 160-371, limits assumed); assay: ELISA, hybridoma clone
T1 construct: domain: PD (protease domain); also called muHtrA4-PD; murine HtrA4-PD
T1 sequence (looked up): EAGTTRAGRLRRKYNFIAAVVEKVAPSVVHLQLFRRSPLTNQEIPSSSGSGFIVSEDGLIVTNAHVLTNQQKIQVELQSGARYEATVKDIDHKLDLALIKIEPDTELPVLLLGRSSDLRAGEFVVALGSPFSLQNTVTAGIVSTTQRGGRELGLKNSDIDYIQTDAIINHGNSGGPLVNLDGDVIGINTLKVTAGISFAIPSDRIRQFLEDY

[4] = molecular target: T2, murine HtrA3 protease domain (murine, UniProt Q9D236 135-350, limits assumed); assay: ELISA, hybridoma clone
T2 construct: domain: PD (protease domain); also called muHtrA3-PD; murine HtrA3-PD
T2 sequence (looked up): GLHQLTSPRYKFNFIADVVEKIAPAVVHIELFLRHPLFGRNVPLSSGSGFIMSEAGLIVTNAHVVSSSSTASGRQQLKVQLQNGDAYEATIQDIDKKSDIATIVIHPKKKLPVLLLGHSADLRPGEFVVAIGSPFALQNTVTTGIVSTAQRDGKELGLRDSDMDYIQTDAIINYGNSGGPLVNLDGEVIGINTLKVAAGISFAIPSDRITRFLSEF

LA-pep2 = molecular target: T3, LA-pep2; assay: SPR, peptide and Fab
T3 construct: The changed residue is printed as an image; A is put in by the column 'AA change' (R1A); also called R1A
T3 peptide: AKLPFSKREVPV

LA-pep4 = molecular target: T4, LA-pep4; assay: SPR, peptide and Fab
T4 construct: The changed residue is printed as an image; A is put in by the column 'AA change' (P4A); also called P4A
T4 peptide: RKLAFSKREVPV

LA-pep3 = molecular target: T5, LA-pep3; assay: SPR, peptide and Fab
T5 construct: The changed residue is printed as an image; A is put in by the column 'AA change' (L3A); also called L3A
T5 peptide: RKAPFSKREVPV

LA-pep5 = molecular target: T6, LA-pep5; assay: SPR, peptide and Fab
T6 construct: The changed residue is printed as an image; A is put in by the column 'AA change' (F5A); also called F5A
T6 peptide: RKLPASKREVPV

LA-pep6 = molecular target: T7, LA-pep6; assay: SPR, peptide and Fab
T7 construct: The changed residue is printed as an image; A is put in by the column 'AA change' (R8A); also called R8A
T7 peptide: RKLPFSKAEVPV

[5] = molecular target: endogenous HtrA1 from media of HtrA1-secreting human C32 melanoma cells (human, UniProt Q92743 23-480); assay: cell-based or functional assay
[6] = molecular target: T8, His-tagged human HtrA1 protease domain (human, UniProt Q92743 161-367); assay: cell-based or functional assay
[7] = molecular target: T8, His-tagged human HtrA1 protease domain; assay: BIACORE T200 SPR; Fab analyte over huHtrA1-PD-His captured by anti-His antibody
[8] = molecular target: T8, His-tagged human HtrA1 protease domain; assay: SPR (BIACORE), Fab
[9] = molecular target: T8, His-tagged human HtrA1 protease domain; assay: BIACORE SPR analysis, Fab format
Method: To determine the binding affinity of selected Fab variants for HtrA1, SPR measurement with a BIACORE™ T200 instrument was performed. Briefly, a series S sensor chip CM5 was activated with 1-EDC and NHS reagents according to the supplier's instructions, and anti-His antibody was coupled to achieve 200-300 response units (RU), then following by blocking un-reacted groups with 1 M ethanolamine. For kinetics measurements, approximately 5 nM of huHtrA1-PD-His was first injected at 10 μl/min flow rate to capture approximately 100 RU at 2 different flow cells (FC), except for FC1 (which served as a reference). Next, 5-fold serial dilutions of Fab in HBS-P buffer (0.01M HEPES pH 7.4, 0.15M NaCl, 0.005% surfactant P20) from low (0.8 nM) to high (50 nM) were injected (flow rate: 30 μl/min). The binding responses on HtrA1 were corrected by subtracting of RU from a blank flow cell. The sensorgram was recorded and subject to reference and buffer subtraction before evaluating by BIACORE® T200 Evaluation Software (version 2.0). Association rates (kₒₙ) and dissociation rates (koff) were calculated using a simple one-to-one Langmuir binding model. The equilibrium dissociation constant (KD) was calculated as the ratio of koff/kₒₙ.

[10] = molecular target: T9, LA-pep1, peptide corresponding to residues 190-201 of the human HtrA1 sequence (human); assay: SPR, peptide and Fab
T9 construct: Synthetic peptide; numbering of the human HtrA1 precursor protein; also called LA-pepl; HtrA1 Loop A (LA) peptide
T9 peptide: RKLPFSKREVPV

[11] = molecular target: T8, His-tagged human HtrA1 protease domain; assay: cell-based or functional assay; remark: listed apart in the source
[12] = molecular target: T10, His-tagged recombinant murine HtrA1 protease domain (murine, UniProt Q9R118 156-367); assay: ELISA, antigen coated on plate, hybridoma clone
T10 construct: His-tagged protease domain; also called muHtrA1-PD-His; muHtrA1-PD
Method: (§1) ELISA was performed according to a standard protocol. Briefly, 96-well microliter ELISA plates (Greiner, Germany) were coated with 100 μl/well muHtrA1-PD-His or huHtrA1-PD-His (SEQ ID NO: 154) at 2 μg/ml in 0.05 M carbonate buffer (pH 9.6) at 4° C. overnight. After washing three times with wash buffer (0.05% TWEEN®20 in PBS, Sigma), plates were blocked with 100 μl ELISA assay diluents with BSA. 100 μl of cultured supernatants or diluted purified monoclonal antibodies (mAbs) were added and incubated for 1 h at room temperature. The plates were washed three times and incubated with HRP-conjugated goat anti-mouse IgG Fc for 1 h. After washing three times, bound enzyme was detected by addition of 100 μl/well of the TMB substrate (BioFX Laboratories) for 5 min. The reactions were stopped by adding 100 μl/well of stop reagent (BioFX Laboratories), followed by detection of color at absorbance 650 nm (A_{650 nm}).

[13] = molecular target: T8, His-tagged human HtrA1 protease domain; assay: ELISA, antigen coated on plate, hybridoma clone
Method: as §1

T8 sequence (Q92743 other isoform, or with tags, fused parts or gaps limits assumed): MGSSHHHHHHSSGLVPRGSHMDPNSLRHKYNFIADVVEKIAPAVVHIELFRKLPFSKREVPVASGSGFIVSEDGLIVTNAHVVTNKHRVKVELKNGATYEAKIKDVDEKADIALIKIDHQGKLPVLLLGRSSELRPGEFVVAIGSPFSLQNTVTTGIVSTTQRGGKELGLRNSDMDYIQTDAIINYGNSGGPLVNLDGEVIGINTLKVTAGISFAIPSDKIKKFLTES
Chain of purified full-length human HtrA1 (Q92743 23-480): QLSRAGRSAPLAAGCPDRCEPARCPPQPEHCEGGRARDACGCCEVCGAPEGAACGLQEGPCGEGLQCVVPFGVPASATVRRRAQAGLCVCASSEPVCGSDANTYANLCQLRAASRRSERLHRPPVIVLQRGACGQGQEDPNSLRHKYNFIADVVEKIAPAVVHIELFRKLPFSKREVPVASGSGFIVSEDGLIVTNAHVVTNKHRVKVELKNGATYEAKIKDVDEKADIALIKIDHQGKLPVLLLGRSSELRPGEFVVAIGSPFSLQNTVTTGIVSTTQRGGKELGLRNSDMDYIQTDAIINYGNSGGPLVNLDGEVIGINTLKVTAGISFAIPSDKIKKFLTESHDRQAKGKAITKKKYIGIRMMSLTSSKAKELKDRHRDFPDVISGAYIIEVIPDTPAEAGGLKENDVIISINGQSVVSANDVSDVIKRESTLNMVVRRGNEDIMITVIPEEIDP
Chain of endogenous HtrA1 from media of HtrA1-secreting human C32 melanoma cells (Q92743 23-480 limits assumed): as the sequence (Q92743 23-480) above

Molecule: His-tagged recombinant murine HtrA1 protease domain (from UniProt Q9R118 156-367) (enzyme)
- IC50 (read off the curve) (h15H6.v1 LC-S49Y variant): 0.6 nM
- IC50 (read off the curve) (h15H6.v1 HC-A71R variant): 0.1 nM

B1: anti-HtrA1 hybridoma antibody clone 15H6 (antibody, V domains shown)
VH: QVQLQQSGAELVRPGASVTLSCKASGYTFTDSEMHWVKQTPVHGLEWIGGVDPETDGAAYNQKFKGKATLTADKSSSTAYMELRSLTSEDSAVYYCTRGYDYDYALDYWGQGTSVTVSS
VL: QIVLSQSPAILSASPGEKVTMTCRASSSVNFIHWYQQKPGSSPKPWISATSNLASGVPPRFSGSGSGTSYSLTISRVEAEDAATYYCQQWSSNPWTFGGGTKLEIK
notes: Murine mIgG2a, from hybridoma or recombinant from 293 cells; also called m15H6
- IC50, FRET blocking assay, recombinant antibody from 293 cells [1]: ~0.7 nM
- IC50, FRET-based blocking assay (H2-Opt cleavage) [1]: 0.7 nM
- fold improvement of IC50 against YW505.94 [1]: ~2 fold
- IC50, FRET-based blocking assay (H2-Opt cleavage) [2]: 1.1 nM
- fold improvement of IC50 against YW505.94 [2]: ~5 fold
- binding result [3]: no binding
- binding result [4]: no binding

B2: h15H6.v4 Fab (Fab, V domains shown)
VH: EVQLVQSGAEVKKPGASVKVSCKASGYKFTDSEMHWVRQAPGQGLEWIGGVDPETEGAAYNQKFKGRATITRDTSTSTAYLELSSLRSEDTAVYYCTRGYDYDYALDYWGQGTLVTVSS
VL: DIQMTQSPSSLSASVGDRVTITCRASSSVEFIHWYQQKPGKAPKPLISATSNLASGVPSRFSGSGSGTDFTLTISSLQPEDFATYYCQQWSSAPWTFGQGTKVEIK
notes: Tested as Fab; also called APEG.LC3.HC3; Fab15H6.v4
- Kd (LA-pep2): 321 nM
- affinity loss (KD mutant/KD wild-type) (LA-pep2): 810 fold
- affinity loss (KD mutant/KD wild-type) (LA-pep4): > 2500 fold
- binding result (LA-pep4): no binding (tested: no binding detected up to 1 µM)
- affinity loss (KD mutant/KD wild-type) (LA-pep3): > 2500 fold
- binding result (LA-pep3): no binding (tested: no binding detected up to 1 µM)
- Kd (LA-pep5): 4.53 nM
- affinity loss (KD mutant/KD wild-type) (LA-pep5): 11 fold
- affinity loss (KD mutant/KD wild-type) (LA-pep6): > 2500 fold
- binding result (LA-pep6): no binding (tested: no binding detected up to 1 µM)
- IC50, endogenous HtrA1 activity assay (H2-Opt) [5]: ~1.12 nM
- IC50, FRET-based H2-Opt blocking assay [6]: ~0.386 nM
- IC50, mass spectrometry-based activity assay (cleavage of intact α-casein) [6]: ~45 nM
- Kd [7]: 0.106 nM
- koff [7]: 3.29e-05 s⁻¹
- kon [7]: 309000 M⁻¹ s⁻¹
- fold improvement in affinity against YW505.94a.28 Fab [8]: ~30 fold
- Kd [9]: 0.106 nM
- koff [9]: 3.29e-05 s⁻¹
- kon [9]: 309000 M⁻¹ s⁻¹
- Kd [10]: 0.4 nM
- IC50 FRET (H2-Opt substrate cleavage) [11]: 0.3 nM
- IC90 FRET (H2-Opt substrate cleavage) [11]: 1.19 nM
- Max inhibition (FRET H2-Opt assay) [11]: 100

B3: anti-HtrA1 hybridoma antibody clone 20E2 (antibody, V domains shown)
VH: EVKLVESGGGLVQPGGSLKLSCAASGFTFSSYIMSWVRQTPEKRLEWVAYISNGGGTTYYPDTIKGRFTISRDNAKNTLYLQMNTLKSEDTAIYFCARQNFRSDGSSMDYWGQGTSVTVSS
VL: NIVLTQSPASLAVSLGQRATISCRASESVDTSGRSFMHWYQQKPGQPPRLLIYLASKLESGVPARFSGSGSRTDFTLTIDPVEADDAATYYCQQNNEDPYTFGGGTNLEIK
- binding result [3]: no binding
- binding result [4]: no binding
- binding result [12]: binds
- binding result [13]: binds

B4: anti-HtrA1 hybridoma antibody clone 3A5 (antibody, V domains shown)
VH: DVHLVESGGGLVRPGGSRKLSCEASGFTFSSFGMHWVRQAPEKGLEWVAFITSDSSTIYYADTVKGRFTISRDNPKNTLFLQMTSLRSEDTAMYYCTRSGDDYLDYWGQGTTLTVSS
VL: DIVLTQSPASLAVSLGQRATISCRASQSVSTSSSSYMHWYQQKPGQPPKVFIKYASNLESGVPARFSGSGSGTDFTLSIHPVEEEDTATYYCQHSWEIPFTFGGGTKLEIK
- binding result [3]: no binding
- binding result [4]: no binding
- binding result [12]: binds
- binding result [13]: binds
